According to US20150344570A1 (published 2015):

T1: FcγRIIb extracellular domain with C-terminal His tag (human, UniProt P31994 43-217)
T1 construct: extracellular domain; Soluble receptor used as analyte in Biacore; also called FcgRIIb; CD32B
T1 sequence (looked up): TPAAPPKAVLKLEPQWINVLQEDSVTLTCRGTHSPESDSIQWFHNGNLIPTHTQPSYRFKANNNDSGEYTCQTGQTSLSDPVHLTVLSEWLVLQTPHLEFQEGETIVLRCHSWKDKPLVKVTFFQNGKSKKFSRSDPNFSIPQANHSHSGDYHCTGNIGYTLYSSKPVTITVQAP

B1: GpH7-A5/GpH7-B3 variant E269_01G/GpL16-k0 (antibody, human IgG1, kappa)
heavy 1: not shown
heavy 2: not shown
light: DIVMTQSPLSLPVTPGEPASISCQASESLVHSNRNTYLHWYLQKPGQSPQLLIYKVSNRFSGVPDRFSGSGSGTDFTLKISRVEAEDVGVYYCSQNTHVPPTFGQGTKVEIERTVAAPSVFIFPPSDEQLKSGTASVVCLLNNFYPREAKVQWKVDNALQSGNSQESVTEQDSKDSTYSLSSTLTLSKADYEKHKVYACEVTHQGLSSPVTKSFNRGEC
notes: Heterodimerized anti-glypican-3 IgG1; mutation in the GpH7-B3 chain only; also called He Ab E269G
B2: GpH7-A5/GpH7-B3 variant S267_12R/GpL16-k0 (antibody, human IgG1, kappa)
heavy 1: not shown
heavy 2: not shown
light: B1 light
notes: Heterodimerized anti-glypican-3 IgG1; mutation in the GpH7-B3 chain only; also called He Ab S267R
B3: GpH7-A5/GpH7-B3 variant H268_07I/GpL16-k0 (antibody, human IgG1, kappa)
heavy 1: not shown
heavy 2: not shown
light: B1 light
notes: Heterodimerized anti-glypican-3 IgG1; mutation in the GpH7-B3 chain only; also called He Ab H268I
B4: GpH7-A5/GpH7-B3 variant S267_16H/GpL16-k0 (antibody, human IgG1, kappa)
heavy 1: not shown
heavy 2: not shown
light: B1 light
notes: Heterodimerized anti-glypican-3 IgG1; mutation in the GpH7-B3 chain only; also called He Ab S267H
B5: GpH7-A5/GpH7-B3 variant S267_05P/GpL16-k0 (antibody, human IgG1, kappa)
heavy 1: not shown
heavy 2: not shown
light: B1 light
notes: Heterodimerized anti-glypican-3 IgG1; mutation in the GpH7-B3 chain only; also called He Ab S267P
B6: GpH7-A5/GpH7-B3 variant V266_15Y/GpL16-k0 (antibody, human IgG1, kappa)
heavy 1: not shown
heavy 2: not shown
light: B1 light
notes: Heterodimerized anti-glypican-3 IgG1; mutation in the GpH7-B3 chain only; also called He Ab V266Y
B7: GpH7-A5/GpH7-B3 variant E269_07I/GpL16-k0 (antibody, human IgG1, kappa)
heavy 1: not shown
heavy 2: not shown
light: B1 light
notes: Heterodimerized anti-glypican-3 IgG1; mutation in the GpH7-B3 chain only; also called He Ab E269I
B8: GpH7-A5/GpH7-B3 variant H268_14T/GpL16-k0 (antibody, human IgG1, kappa)
heavy 1: not shown
heavy 2: not shown
light: B1 light
notes: Heterodimerized anti-glypican-3 IgG1; mutation in the GpH7-B3 chain only; also called He Ab H268T
B9: GpH7-A5/GpH7-B3 variant E269_06M/GpL16-k0 (antibody, human IgG1, kappa)
heavy 1: not shown
heavy 2: not shown
light: B1 light
notes: Heterodimerized anti-glypican-3 IgG1; mutation in the GpH7-B3 chain only; also called He Ab E269M
B10: GpH7-A5/GpH7-B3 variant S267_11K/GpL16-k0 (antibody, human IgG1, kappa)
heavy 1: not shown
heavy 2: not shown
light: B1 light
notes: Heterodimerized anti-glypican-3 IgG1; mutation in the GpH7-B3 chain only; also called He Ab S267K
B11: GpH7-A5/GpH7-B3 variant S267_15Y/GpL16-k0 (antibody, human IgG1, kappa)
heavy 1: not shown
heavy 2: not shown
light: B1 light
notes: Heterodimerized anti-glypican-3 IgG1; mutation in the GpH7-B3 chain only; also called He Ab S267Y
B12: GpH7-A5/GpH7-B3 variant V266_20W/GpL16-k0 (antibody, human IgG1, kappa)
heavy 1: not shown
heavy 2: not shown
light: B1 light
notes: Heterodimerized anti-glypican-3 IgG1; mutation in the GpH7-B3 chain only; also called He Ab V266W
B13: GpH7-A5/GpH7-B3 variant E269_13S/GpL16-k0 (antibody, human IgG1, kappa)
heavy 1: not shown
heavy 2: not shown
light: B1 light
notes: Heterodimerized anti-glypican-3 IgG1; mutation in the GpH7-B3 chain only; also called He Ab E269S
B14: GpH7-A5/GpH7-B3 variant E269_12R/GpL16-k0 (antibody, human IgG1, kappa)
heavy 1: not shown
heavy 2: not shown
light: B1 light
notes: Heterodimerized anti-glypican-3 IgG1; mutation in the GpH7-B3 chain only; also called He Ab E269R
B15: GpH7-A5/GpH7-B3 variant S267_18N/GpL16-k0 (antibody, human IgG1, kappa)
heavy 1: not shown
heavy 2: not shown
light: B1 light
notes: Heterodimerized anti-glypican-3 IgG1; mutation in the GpH7-B3 chain only; also called He Ab S267N
B16: GpH7-A5/GpH7-B3 variant E269_14T/GpL16-k0 (antibody, human IgG1, kappa)
heavy 1: not shown
heavy 2: not shown
light: B1 light
notes: Heterodimerized anti-glypican-3 IgG1; mutation in the GpH7-B3 chain only; also called He Ab E269T
B17: GpH7-A5/GpH7-B3 variant E269_04F/GpL16-k0 (antibody, human IgG1, kappa)
heavy 1: not shown
heavy 2: not shown
light: B1 light
notes: Heterodimerized anti-glypican-3 IgG1; mutation in the GpH7-B3 chain only; also called He Ab E269F
B18: GpH7-A5/GpH7-B3 variant H268_08L/GpL16-k0 (antibody, human IgG1, kappa)
heavy 1: not shown
heavy 2: not shown
light: B1 light
notes: Heterodimerized anti-glypican-3 IgG1; mutation in the GpH7-B3 chain only; also called He Ab H268L

Biological target: T2, FcγRIa extracellular domain with C-terminal His tag (human, UniProt P12314 16-292)
T2 construct: extracellular domain; Soluble receptor used as analyte in Biacore; also called FcgRI; FcgRIa
T2 sequence (P12314 16-292): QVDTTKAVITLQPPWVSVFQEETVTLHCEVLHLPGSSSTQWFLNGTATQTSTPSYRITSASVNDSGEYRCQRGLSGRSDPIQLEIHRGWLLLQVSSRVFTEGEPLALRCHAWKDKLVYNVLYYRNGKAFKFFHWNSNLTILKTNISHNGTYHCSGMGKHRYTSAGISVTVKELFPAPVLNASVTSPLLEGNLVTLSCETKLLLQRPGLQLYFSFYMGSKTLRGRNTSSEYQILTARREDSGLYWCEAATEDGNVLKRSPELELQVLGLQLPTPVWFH
Experiment: SPR Biacore, antibody captured on antigen-peptide chip, FcγR as analyte

Row | He/Con_1a | Binder
1 | 104 relative, GpH7-A5/GpH7-B3/GpL16-k0 = 100 | B1
2 | 92.7 relative, GpH7-A5/GpH7-B3/GpL16-k0 = 100 | B2
3 | 108 relative, GpH7-A5/GpH7-B3/GpL16-k0 = 100 | B3
4 | 100 relative, GpH7-A5/GpH7-B3/GpL16-k0 = 100 | B4
5 | 91.8 relative, GpH7-A5/GpH7-B3/GpL16-k0 = 100 | B5
6 | 93.3 relative, GpH7-A5/GpH7-B3/GpL16-k0 = 100 | B6
7 | 103 relative, GpH7-A5/GpH7-B3/GpL16-k0 = 100 | B7
8 | 112 relative, GpH7-A5/GpH7-B3/GpL16-k0 = 100 | B8
9 | 104 relative, GpH7-A5/GpH7-B3/GpL16-k0 = 100 | B9
10 | 93.3 relative, GpH7-A5/GpH7-B3/GpL16-k0 = 100 | B10
11 | 94.2 relative, GpH7-A5/GpH7-B3/GpL16-k0 = 100 | B11
12 | 91.4 relative, GpH7-A5/GpH7-B3/GpL16-k0 = 100 | B12
13 | 103 relative, GpH7-A5/GpH7-B3/GpL16-k0 = 100 | B13
14 | 97.1 relative, GpH7-A5/GpH7-B3/GpL16-k0 = 100 | B14
15 | 102 relative, GpH7-A5/GpH7-B3/GpL16-k0 = 100 | B15
16 | 106 relative, GpH7-A5/GpH7-B3/GpL16-k0 = 100 | B16
17 | 103 relative, GpH7-A5/GpH7-B3/GpL16-k0 = 100 | B17
18 | 107 relative, GpH7-A5/GpH7-B3/GpL16-k0 = 100 | B18

Biological target: T1, FcγRIIb extracellular domain with …
Experiment: as above

Row | He/Con_2b | Binder
19 | 51.5 relative, GpH7-A5/GpH7-B3/GpL16-k0 = 100 | B1
20 | 11.3 relative, GpH7-A5/GpH7-B3/GpL16-k0 = 100 | B2
21 | 88.9 relative, GpH7-A5/GpH7-B3/GpL16-k0 = 100 | B3
22 | 65.9 relative, GpH7-A5/GpH7-B3/GpL16-k0 = 100 | B4
23 | 31.5 relative, GpH7-A5/GpH7-B3/GpL16-k0 = 100 | B5
24 | 49.4 relative, GpH7-A5/GpH7-B3/GpL16-k0 = 100 | B6
25 | 43.9 relative, GpH7-A5/GpH7-B3/GpL16-k0 = 100 | B7
26 | 86 relative, GpH7-A5/GpH7-B3/GpL16-k0 = 100 | B8
27 | 46.7 relative, GpH7-A5/GpH7-B3/GpL16-k0 = 100 | B9
28 | 12.2 relative, GpH7-A5/GpH7-B3/GpL16-k0 = 100 | B10
29 | 37.9 relative, GpH7-A5/GpH7-B3/GpL16-k0 = 100 | B11
30 | 71.9 relative, GpH7-A5/GpH7-B3/GpL16-k0 = 100 | B12
31 | 47.8 relative, GpH7-A5/GpH7-B3/GpL16-k0 = 100 | B13
32 | 25.2 relative, GpH7-A5/GpH7-B3/GpL16-k0 = 100 | B14
33 | 47.7 relative, GpH7-A5/GpH7-B3/GpL16-k0 = 100 | B15
34 | 50.6 relative, GpH7-A5/GpH7-B3/GpL16-k0 = 100 | B16
35 | 45 relative, GpH7-A5/GpH7-B3/GpL16-k0 = 100 | B17
36 | 67.8 relative, GpH7-A5/GpH7-B3/GpL16-k0 = 100 | B18
